Laboratory results: the RNAGym collection of RNA variant scans (doi:10.1073/pnas.2313332121)

B1: TPR t1 (parent)
chain: GACCAAUCUGCCCUCAGAGCUCGAGAACAUCUUCGGAUGCAGAGGAGGCAGGCUUCGGUGGCGCGAUAGCGCCAACGUCCUCAACCUCCAAUGCAUCCCACCACAUGAUGAUGCCUGAAGAGCCUUGGUUUUUUG

Variants of: B1
Assay: polymerase ribozyme fitness, log enrichment relative to wild type (log ratio); higher = more active; in vitro selection for triplet polymerase activity
Outline: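 Streptavidin-bead capture of gel-excised extended constructs, followed by RT-PCR, closed a single triplicate in vitro selection round. That round began by annealing PCR-built, transcribed mutant libraries of each subunit of a heterodimeric triplet polymerase ribozyme with a biotinylated primer, the partner subunit and triplets, then incubating them frozen at −7 °C. After Illumina sequencing of inputs and outputs, genotypes needed ≥10 input reads and ≥1 read per output. Fitness is the base-2 logarithm of genotype enrichment over wild-type enrichment, using inverse-variance-weighted replicate averages.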

Variant	polymerase ribozyme fitness (log ratio)
A90U	-1.2
C73G A95C C124U G128U U129C	-1.71
G45C G61A	0.0573
C8A U112G	0.614
U32C C62A	-1.92
A6C C101A U132A	-1.42
G10A C13A A18G	-6.95
C62U C97U	-0.489
A37C G44U C62A	-2.41
A18U C49U C102U G117A	-7.34
U14A C49U G71A	-3.73
C49U C56A G120C	0.0733
G61C U81A	-3.2
C79A G113A	-2.27
C8A U92C	-0.565
C72U G110A U130A	-1.72
C49G G63U U96G	-2.68
C79U G93C A100U U112G	-2.61
A100U U132C	-0.866
A50U G57A U130C	-1.53
A29C C49U	-2.86
G69A U81G	-6.79
A41U C94G	-1.87
A50U U54A G63C U112A	-2.51

Variant	polymerase ribozyme fitness (log ratio)
C13G G39A	-2.78
G39A G71C G93U C104U C123A	-3.19
C28U G45A G52A U116C	-4.51
G45A A100U	-2.26
C64U A103U	-3.47
C13U G47A C82G C123G U125A	-1.19
A18U G57C G77U A105U U112C	-4.24
A26U A74U C88A G93A C101U	-5.3
A74U A83G	-0.972
G47A C49A G60C G128C	-4.7
G57A G58A U81A U106C	-2.54
C12G A16U C72U G93U U112A	-3.35
C76A C102A	-3.94
C8G G39A C79A C82A C85A C114U	-4.81
G47A C86A	-0.754
C12U G36A	-0.19
G69C C124G	0.351
U7G U38G U54C C56U G110A G122U	-3.58
C13A C15G U106A	-3.48
C89U G117A	-2.43
G45A G51A C72U	-3.6
G57C U78C U87C C102A C124A	-0.477
C79A G120C	0.837
U32C G47U G48U G113C	-3.38

Variant	polymerase ribozyme fitness (log ratio)
C3G G57A G60A A111C	-2.99
G57C G61A G110U C115A	-2.7
C8G G36C C56A C70U U96C A119U	-5
C4U G113U C124U	-4.72
U96G C102G G113U	-5.71
G77U C104G	-6.6
C11U G69U	0.459
A6G U78C C102A C124A U130A	-1.35
A24G C62A C89G G113C C115A A118C	-6.92
G63U U109G	-6.35
C40U G113U U129C	-3.58
G51A G77C U116C A118C	-5.43
C49A U55G C70U C86U A95C C101U C123A G135C	-1.71
C8A G93A G117U G128U	-4.74
A6C U9G G77C A105G U126A	-4.13
C40A C49G U55C A95C G120A	-2.38
G35A C99U U112A	-3.32
C11G U106G	-0.452
C40A A66U C72G C94U	-3.54
C72G G127U	-1.1
A83G G127C	-1.88
C12U G17U C73U C88U C104A U109A	-5.21
C22G G45A U54A A95C C114U	-5.19
C15G A119G	0.41

Variant	polymerase ribozyme fitness (log ratio)
G52A A74G C79G U96G	-0.912
C3U A74U U106G G110A A119G	-4.14
G52C C56A	-0.559
U38G U55C G61A A91C A108C G110U C124A U126C	-6.93
G42A G63C C86A	-3.7
C15A U59A	-2.31
C8G C82A	0.946
C12A C101U	-0.736
C53A C76U U87C	-0.534
C28G A29U C114G G127C	-5.87
C12G G39U C53G	-0.932
G57A A119G	0.755
A18G C49U G107A	-5.11
C40U C85A G120C	-0.223
A66U C88U	-0.564
U54G C85G G113C A118C	-4.79
A24G G69A C82A A95C G120A	-4.87
G17A A90C A95G C104U A119U	-3
U9A U30C G47U	-3.54
A83C C124G	0.483
U30G C70G C89A A111G	-7.35
G36C C102A	-3.12
C12U A29G A50U A91G	-3.08
A5U A46U U81A	-2.98

Variant	polymerase ribozyme fitness (log ratio)
G61A C88G G120A A121C	-1.75
G19U G93U	-4.25
C28A C73A C94A A119U	-5.2
A26G G65A	-5.09
G45U C70A G120U G122C	-2.72
C8A U38A A46C C72U	-1.72
A5C C115A	-0.966
C49G A83G	0.789
G71U C97A C115U A119G	-5.37
C86G C102A	-3.09
C53A C70A A75U C79A C82G U112C	-3.2
C8U C40U G47A	-1.72
A46C C72A C123U	0.713
G17A G93A A121C	-1.03
G77A C101A G117A	-3.06
G48U A83G C97U C104A G120A	-3.43
C62G C89A	-4.23
C12U G47U G69A G110C U112G	-7.15
C34G A95G U109G G117C	-6.44
A41U A83U U87G U92A	-0.357
G42A G63C	-2.96
C4U U7G C22G U55G A91C C124A	-3.16
A6C G36C	-1.4
U78G A90C	-1.6

Variant	polymerase ribozyme fitness (log ratio)
C4A C56A	-2.53
C20G C123U U126A	-3.94
U30C G63U C85U	-5.85
C49A U54A G60U U81A G128U	-2
A18C U125G	-3.63
G45U A46C U54C U78C	-2
C40U C64U C85U A100G U106C U112C	-2.44
C20U A24U G60C G63C G69A U81G C98G U109G	-6.52
C56U C102A U129G	-3.35
U59G A111G	0.731
U9A C62U	0.575
C13A C20U C40U C72A A83C G117U C124A	-4.4
C15U G36U C64A A121G	-5.18
G47A G48C G52U C62G C79U	-5.83
A27G U38A	-3.17
C13G G48A G63A A83C	-3.74
C15U C114U	-2.91
G48C G63A G113A U126C	-3.69
G44A G60C A111U	-5.02
G113A G120C	-1.02
C11A C53U	-1.77
G61A G93U A111G	0.181
A37C C89U C115G	-3.26
G35C A83U A121G U126A	-4.11

Variant	polymerase ribozyme fitness (log ratio)
G60U U106A	-0.529
C62G G69U	-5.17
A5U C62G A90G C123U	-0.143
A18G G60U U96G A108U	-7.14
U55C C72G	-0.713
C56A C72G G77C C98U G128A	-3.6
C15A G69U C88U U125C	-3.27
G10A A37U C53A C56G C85U G110U	-2.81
A74C C82A G113U C124A G128C U131G	-4.12
U7G C70U C102A	-2.24
G10A G122A	0.549
C8A G69A	-1.52
C4U C20A A111U	-2.94
C13U G23A A26G G61A C79U U106C	-4.2
A27U G51U C62A C70U C115G	-6.61
G60C U133A	-0.621
C20A C86A U112A U125G U126G	-1.97
C28A C64G A111U C115G	-6.15
A26C C40G U87C C101U C104U	-5.71
U7A G19U U87G	-3.3
C13U G45A C79G	-1.83
A29G C49U G61A C85U	-1.74
G10A C53U G63U	-0.334
